# Measurements as given in paper PMC10269693.
# Test system: CN[C@@H]1[C@H](O)[C@H](NC)[C@H]2O[C@@]3(O)C(=O)C[C@@H](C)O[C@H]3O[C@@H]2[C@H]1O
# Experiment: purified protein
# Details: 5 mM ATP, 10 mM MgCl2, 50 mM HEPES pH 7.5, 37°C
substance,measurement,value
ANT(9)-Ib (Enterococcus faecalis),Km,33.56 ± 8.1 µM
same,kcat,2.6 ± 0.2 s⁻¹
same,kcat/Km,83000 ± 21000 M⁻¹ s⁻¹
